Tests used:
[1] = tested on: CNC(Cc1ccc(O)c(O)c1)C(=O)O; test: steady-state oxygen depletion, oxygen sensor; type: biochemical, Aspergillus fumigatus; settings: pH 7.6, 25 °C, 100 mM Tris/HCl, 150 mM NaCl, air-saturated (O2 co-substrate)
Excerpt: (§1) steady-state oxygen depletion, oxygen sensor on FsqB

[2] = tested on: CN[C@@H](Cc1ccc(O)c(O)c1)C(=O)O; test: steady-state oxygen depletion, oxygen sensor; type: biochemical, Aspergillus fumigatus; settings: pH 7.6, 25 °C, 100 mM Tris/HCl, 150 mM NaCl, air-saturated (O2 co-substrate)
Excerpt: as §1

CNC(Cc1cccc(O)c1)C(=O)O = test: steady-state oxygen depletion, oxygen sensor; type: biochemical, Aspergillus fumigatus; settings: pH 7.6, 25 °C, 100 mM Tris/HCl, 150 mM NaCl, air-saturated (O2 co-substrate), error ± 0.6
Excerpt: as §1

[3] = tested on: CN[C@@H](Cc1ccc(O)cc1)C(=O)O; test: steady-state oxygen depletion, oxygen sensor; type: biochemical, Aspergillus fumigatus; settings: pH 7.6, 25 °C, 100 mM Tris/HCl, 150 mM NaCl, air-saturated (O2 co-substrate)
Excerpt: as §1

[4] = molecular target: the molecule itself; test: crystal structure; hexagonal crystals (P6522), one chain in the asymmetric unit; dimer with a symmetry-related molecule by a crystallographic 2-fold axis, analysed with the EBI-Pisa server; 2.6 A

Molecule | Km [1] [µM] | kcat [1] [s⁻¹] | kcat/Km [1] [M⁻¹ s⁻¹] | Km [2] [µM] | kcat [2] [s⁻¹] | kcat/Km [2] [M⁻¹ s⁻¹] | Km (CNC(Cc1cccc(O)c1)C(=O)O) [µM] | kcat (CNC(Cc1cccc(O)c1)C(=O)O) [s⁻¹] | kcat/Km (CNC(Cc1cccc(O)c1)C(=O)O) [M⁻¹ s⁻¹] | Km [3] [µM] | kcat [3] [s⁻¹] | kcat/Km [3] [M⁻¹ s⁻¹] | binding result [4]
FsqB (Aspergillus fumigatus Af293) | 160 ± 10 | 8.5 ± 0.1 | 53000 ± 4000 | 270 ± 20 | 8.2 ± 0.2 | 30000 ± 3000 | 1600 ± 200 | 3.5 ± 0.1 | 2180 ± 40 | 2100 ± 200 | 3.9 ± 0.2 | 1910 ± 20 | –
FsqB (fumisoquin biosynthesis gene B product), flavoprotein of the amine oxidase family (enzyme, Aspergillus fumigatus, FAD covalently bound through its 8alpha-methyl group to Cys-414, FsqB of Aspergillus fumigatus, gene Afu6g03440, codon-optimized synthetic gene in pET21a; the domains described in the structure span residues 1-496; Molecular mass printed as 55 kDa; Dimer generated by a crystallographic 2-fold axis; one chain in the asymmetric unit; also called WT FsqB; Afu6g03440) MSIPNSFIIVGSGVFGLSLAYALSLDDRFADKKIILVDRWNFEPPNATGSVHNPAAANADTSRVIRRDYPHGPYASLALEAMKHWRGKFGENNRYVNQRLLFSGEGSSLTTPPKALETVNYIKKAYAISCELTPGGRDAVQVLDSLDEVRAFLGNTPSHPPHLPVNKDPAARDLRGYVSNDCGWADAGASIEWLRQEVLRLGRVECVVGEVESLVYSDDQRAVKGVKLVDGKVLTAELTVIAAGARSSHILGIPKLCDVYSEFVAYIQLTKEEADELRRRQWPILVNCHRGVFAVGPDHDNCLKFGHFSYSGIVDVLREASIQVPTRPDGWEAQQKYWSDPRFAFGGEVKVSALGDVDDYENPAAQRALADYRLFLLELLGPTGLQGVDTLGLDQSDNLLNNIANRPFTRVRKCWYNDTPALDFVVDYHPSYGKTLFVATGGCDHAFKFLPIIGEKTLALILRNRGDSAVSLPAGVEPSLEELSELWRFPVELLQDN | – | – | – | – | – | – | – | – | – | – | – | – | binds

Reference: publication PMC6222107 (The Journal of Biological Chemistry, 2018)
